Data from a protein production outcome set (Wang et al. 2014).

Test: label from the status in PepcDB records
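Also: failed if final PepcDB status was selected cloned or expressed and not failed if soluble or beyond.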

MSAVVAQTLHVFGLRSHVANNIFYFDEQIIIFPSGNHCVKYNVDQKWQKFIPGSEKSQGMLALSISPNRRYLAISETVQEKPAITIYELSSIPCRKRKVLNNFDFQVQKFISMAFSPDSKYLLAQTSPPESNLVYWLWEKQKVMAIVRIDTQNNPVYQVSFSPQDNTQVCVTGNGMFKLLRFAEGTLKQTSFQRGEPQNYLAHTWVADDKIVVGTDTGKLFLFESGDQRWETSIMVKEPTNGSKSLDVIQESESLIEFPPVSSPLPSYEQMVAASSHSQMSMPQVFAIAAYSKGFACSAGPGRVLLFEKMEEKDFYRESREIRIPVDPQSNDPSQSDKQDVLCLCFSPSEETLVASTSKNQLYSITMSLTEISKGEPAHFEYLMYPLHSAPITGLATCIRKPLIATCSLDRSIRLWNYETNTLELFKEYQEEAYSISLHPSGHFIVVGFADKLRLMNLLIDDIRSFKEYSVRGCGECSFSNGGHLFAAVNGNVIHVYTTTSLENISSLKGHTGKIRSIVWNADDSKLISGGTDGAVYEWNLSTGKRETECVLKSCSYNCVTVSPDAKIIFAVGSDHTLKEIADSLILREISAFDVTYTAIVISHSGRMMFVGTSVGTIRAMKYPLPLQKEFNEYQAHAGPITKVSRTLSPGTQSHTCLLRALFIPSTSQCLFSLLLLSYLFIHHSLNHHLLTMNILFV
protein production: failed

MNIKVTVFHYILDRSYIFLLFIIFISLIFPIISAFISLIFVGLLFQGLYLRRQSSTNSPYIVLEILSMLSLIYAAQFFTHLLKATDIVFLSYLIIISLSLYRLKRIIKKKTNYLQNSKVAFTLLLLAFLLNWFISGFLDLTQGNFSVFGQFGYFSYPFLAIMNFISAFASITASPWFMIDMGIWLGVIGIFRIIEYNKLENKIRYLLMMFAYAFYSIYLPSFSPLQSEVQYIPYMWFNGLGTYGPVRSSYLLDGIIGTFTVTAILSFMFGSRQICSVTCTAPYMLQNTFLNSMKKYNRSSKVGRKTLTSRMSSWYKWVMSITWISLIILAVLSFLKFSILGNDPTMFYTSLYFNVIWYFQFMLMPFLGNYACVNSGICAWGSFNQLFGYLGFFKLKVRDLKQCLNCKTVDCANACPVGLTDMRAWFIKKGEFKSFKCVGVGDCVEVCPYNNITFYDVRSWIKEKLYPIQFKHRGTT
protein production: failed

MSLAQKLRQASSRLLGVVFELQQPFHGDLVEQIYAAATRRGYDVMLSAVAPSRAEKVAVQALMRERCEAAILLGTRFDTDELGALADRVPALVVARASGLPGVGAVRGDDVAGITLAVDHLTELGHRNIAHIDGADAPGGADRRAGFLAAMDRHGLSASATVVTGGTTETEGAEGMHTLLEMPTPPTAVVAFNDRCATGVLDLLVRSGRDVPADISVVGYDDSRLARIPHVQMTTISQDATHMAEAAVDGALAQISGDKAVDLVLAPHLVRRATTGPVAHREGHHHHHH
protein production: not failed

MKFIRRCMMETRYTVRQAVEMTGVKSYVLRYWEEELELQIHRNELGHRYYTGYDIQLFLNIKELKKRGLQLRAIKNLIPQITASMTGFGESASTLLEGEVIDHAEVKTDRDLKEKISKKDEGKNDKILEFQAILERLITQELKAQNEDEERCRSLDYAIRRQQLARKEAAAAAEKKSGRRRRDK
protein production: not failed

MILPPAFHAALLSGGNGRESKLPWVALGLAWLLAVLALLGPSWQRVEQTSQKPADPLVVLLELTPQMLANDVPPDRLEQARHKLLDLLQLRSDAQTAIVVYAGSAHTLVPLSDDLATSRNLLDALKPSIMPQAGQRADLALLKALKLLDQGALGQGRVLLMASSLNEEERQGIRQALKGDAPQLLMLGFGSRDGAPVAQEDGSYLKDDQGAILVSRLDSPDLKHFIGDVGGRYRQARLDDSDLRGLGLLGGPQGLRSDGQTLRLDTWADQGYWLLLPLLLLAACAGRRGWLFCLPLLLFAVPQPSYAFDFNDLWLRPDQQGQRLLQQQRPAEAARHFQDPQWQGVALYEAGNYTAAAERFAEGNDARAHYNRGNALARSGELEAAIDAYEQALERQPDLQPALQNKALVESLLQQQQAQTQTPPPAKKPDTPEGDDTRPGPSGAATQPPPGSNGPQDPAQAPANEGDTPPPDPQAAGHSEVPGSELDDQHTTTPLRPVEDSLDAEHQQALEQWLRKIPDDPGELLRRKFWYEQQQHQDQGKTR
protein production: failed

MLHKVVQVRLYPSIEQKVQLAQAFGCSRWWWNYALNKSIETYKETGKGLTRAALNALLPNLKKAEDTCWLADCYSQVLQATTLNLTTAYKNFFEKRAGFPKFKSKHGKQSIQYPQNVKIVDGESSPVRAASRREGGFPSVGNWRSRSVSEGFTRKGNIKLPGNIGIVKAKIHRPIEGKIKTVTVSKTPSGKYLASILTEVEGVSTPLNTSEKPAITEGKIYGIDLGLKHFAVVSDGEKISKYDNPKHLAKHEKNLKRKQKKLARKVKGSNSRNRYRKVVAKVYERVSNSRQDFLHKLSYKLVSDSQAVIVENLHLLGMVRNHKLAKSISDAGWGMFTNFLAYKLERKGGKLVEIDRWFPSSKLCSNCFYQIGEMPLDVREWTCPSCGTHHDRDGNAAINIRAEGIRMIKAEGSAVSAVGGEVSPKLGRKSKFGHSPVITEADTVLGTPSQCG
protein production: failed

MTRAINDPGNEDPGSLLETDADALLGGAAAQAPEERCRLAAQACIRACERYLALCTESSREQRQHAGDCADLCRLAALLLERRSPWAPAACELAARYALACAERCDGDEPLERECAGACRRFVEACRPLLPA
protein production: not failed

MEINNNISSTIPLVDIVLVFCYVFSFYVIGPLTSSVIIALPLMFCCLYKKKWGYCLLLELKNSFIVRIFISQWLLIGIAVFYSCLHLTMELEYIKVLIAQMFHFICGIFIIIYLKYQKQYTTLKIEQTIIWAFLVQSIIQLIAMSIPSFAHFILYFSRAHDLQDAYGGGVRGLALSSGVGWSLGLAYGLIYIVFVKRYLLSGVNMKSTLIGILLLMGTIFAGRTGFVGACLGGIFFIISNQLSYRTKLMFVLKILLGVILFFLCIYFLFPSMTEHLVDNVFPFAFEPFYKMYYNDEFSTSSTDRLEEMWRVSTSVEEILYGSGSFIDTITGAYYKHIDIGILRNLFYWGIGGYILLIIYQLILIAPIKYNKIQRVSHFNMFFYKLLIIVYLFLLECKAVTIGLNKMTFSVIFLIAYFYFDEIHSKKYIAELR
protein production: failed

MLYDLTVVQFSKMLKNLNAIFDKAEAFAELKKVDMDVLLNSRLAADQFNLIRQVQIACDTAKVGVARLTGQLETAPKHDDSETTLAELRQRIASVLTYLEGFSEADFANAATIQISQPRWQGKYLTGYEFAIEHAIPNLYFHITTAYGILRHNGVEVGKKDYLGAMPYKAPIL
protein production: not failed

MGHHHHHHSHMDTPENVLQMLEAHMQSYKGNDPLGEWERYIQWVEENFPENKEYLITLLEHLMKEFLDKKKYHNDPRFISYCLKFAEYNSDLHQFFEFLYNHGIGTLSSPLYIAWAGHLEAQGELQHASAVLQRGIQNQAEPREFLQQQYRLFQTRLTETHLPAQAR
protein production: failed

MFIEALILLCLVGAAAVFIAPDRYAHKLALGLSVPPLVVSLYMYAAFDGSGNALLGGDIAYETATEWLQLGQYTVSYHVGLDGISLPLVVLSTVLTTLAILSAWTPIDERQSEFYGLVLLLEGSLIGVFAALDFILWFVFWEAVLIPMYLLIGVWGGPRRKYAAIKFFVYTNIASLVMFIGYFALVFGLGDAVSSTGMPAVAQALRADQLGYLGTAAVGIGPDMLAMAAFLAMFVGFAVKVPVVPFHTWLPDAHVEAPTPVSVLLAGVLLKMGTYALLRFNFTMLPDQVETFAVPIALIAIISILYGALLALAQKDLKRIVAYSSVSSMGYVILGLVAYTVYGVGGATFQMIAHGLISGLLFMTVGVFYNATHTRMVGDMGGLADRMPVTAGIFIAGAFGYMGLPLMAGFMAELFVFIGAFQSAILPYAPVITAAGMFGIVVVAGYLLWAMQRSLFGPFRLETDYELERAPVHDIVPLLTLVALIIALGVAPDLIFEMIRDATHSVIDYDFGGDL
protein production: failed

MEDIIFGKRSNVFDVNPENTVFVLIAGTSEVSTVPGITSAGATPELTRLTPAIDSEIIGEGKCLSSKDPPMTPEGIPTPAIVTKAILSLTNIRYIIVNGGFYAKPKTPFIETGLKPSNNPAVKTAIEDLDAAIHAGEHIGRLLDGVFENIILAESVPGGTTTAYAVLKAIGINAKTSSSMKEDPFSIKEKIAEMSFRRKLEKSPLGAVKEYGDNMMAVSLGISSSVKRSKIIFGGGTQMATVMYLDRLINGMRDRYISTTGWVYYHRTELFSDLGLSDYLAVSAMDFSGMKHPGLRYYQYGHVREGTGMGAAFLLARLMNFEAEAIYKSVDDFYEQFI
protein production: failed

MLPPYNYMDNGTLKGISIDLLEAITEKMGKKVTREEIHLVSWTEGYQAALTRNNTVLFVTARTPEREQSFKWVGPIYSDKYVLFAKRDPGVTIDGPEDLKEYRIGVISDDLEHHHHHH
protein production: failed

MAYTTTVKLDGDTKTYTLSPTVKKYTLMDLGFVKGRSGAFSFERSLDPTSPYQAAFKLKMTVNADLTGFKMTTVTGNGVQRANIFKNDAHPEAVEQLRYILANFIERDILTTD
protein production: not failed

MTLDNRAFLKQSSKKLLFRFAVPAIFSLLVNELYNMVDTVFAGRYIGENAIGAMTIAFPIQKILIAMGLLIATGASTYAARVIGEKNYKELKKIVINSCALTIVSIISISFIIFQFKSSILYSLGASDNTYPMAVQYISIILFGSIFMCLASVMSYIMVSLGKTKTLLYTNIVGVLLNIILNYVLVIQLHMGIRGSGIATVLSQLAAFVVALVQFAYMNKKQNFKFFENISTNIISGDIIREIVLVGFSTFIIEIADAVVSAVLNNVLYAGGGDSAIIMLGVITKVYMFMFITVIGISSGMQPIVGYNFGAGNYKKAKDILKFSLKTVIIISAFVWVGFIIWAQPLIGFFLKDAQLVSKTVSAFRIVISMLPLLGIYYVAIYYYQAIGEARISFILSIYRELIMFIPMAVILFKIVGINGVFIAYPLTDIIVILTSVYFIRRAFKEQFAEESIPKRVGARA
protein production: failed

SVNAATVDLRIMETTDLHSNMMDFDYYKDAATEKFGLVRTASLIEQARAEVKNSVLVDNGDVIQGSPLGDYMAAKGLKEGDVHPVYKAMNTLNYAVGNLGNHEFNYGLDFLHKALAGAKFPYVNANIIDAKTGKPMFTPYLIQDTRVVDSDGQIHTLRIGYIGFVPPQIMTWDKANLNGKVTVNDITETARKYIPEMRAKGADVVVVVAHSGLSADPYQAMAENSVYYLSQVPGVDAIMFGHAHAVFPGKDFANIKGADIAKGTLNGVPAVMPGMWGDHLGVVDLVLNNDSGKWQVTQSKAEARPIYDAVAKKSLAAEDGKLVSVLKADHDATREFVSK
protein production: not failed

MSKDFDLIIRNAYLSEKDSVYDIGIVGDRIIKIEAKIEGTVKDEIDAKGNLVSPGFVDAHTHMDKSFTSTGERLPKFWSRPYTRDAAIEDGLKYYKNATHEEIKRHVIEHAHMQVLHGTLYTRTHVDVDSVAKTKAVEAVLEAKEELKDLIDIQVVAFAQSGFFVDLESESLIRKSLDMGCDLVGGVDPATRENNVEGSLDLCFKLAKEYDVDIDYHIHDIGTVGVYSINRLAQKTIENGYKGRVTTSHAWCFADAPSEWLDEAIPLYKDSGMKFVTCFSSTPPTMPVIKLLEAGINLGCASDNIRDFWVPFGNGDMVQGALIETQRLELKTNRDLGLIWKMITSEGARVLGIEKNYGIEVGKKADLVVLNSLSPQWAIIDQAKRLCVIKNGRIIVKDEVIVA
protein production: not failed

MKLKNPLDMHLHLRDNQMLELIAPLSARDFCAAVIMPNLIPPLCNLEDLKAYKMRILKACKDENFTPLMTLFFKNYDEKFLYSAKDEIFGIKLYPAGITTNSNGGVSSFDIEYLKPTLEAMSDLNIPLLVHGETNDFVMDRESNFAKIYEKLAKHFPRLKIVMEHITTKTLCELLKDYENLYATITLHHLIITLDDVIGGKMNPHLFCKPIAKRYEDKEALCELAFSGYEKVMFGSDSAPHPKDTKECCGCAAGVFSAPVILPVLAELFKQNSSEENLQKFLSDNTCKIYDLKFKEDKILTLEEKEWQVPNVYEDKYNQVVPYMAGEILKFQLKH
protein production: not failed
